B1: AN1-type zinc finger protein 5 (Homo sapiens), O76080 (parent)
chain: MAQETNQTPGPMLCSTGCGFYGNPRTNGMCSVCYKEHLQRQQNSGRMSPMGTASGSNSPTSDSASVQRADTSLNNCEGAAGSTSEKSRNVPVAALPVTQQMTEMSISREDKITTPKTEVSEPVVTQPSPSVSQPSTSQSEEKAPELPKPKKNRCFMCRKKVGLTGFDCRCGNLFCGLHRYSDKHNCPYDYKAEAAAKIRKENPVVVAEKIQRI

In one assay the parent is B1. Conditions: with ubc_human UBC.
As to MAQETNQTPGPMLCSTGCGFYGNPRTNGMCSVAYKEHLQRQQNSGRMSPMGTASGSNSPTSDSASVQRADTSLNNCEGAAGSTSEKSRNVPVAALPVTQQMTEMSISREDKITTPKTEVSEPVVTQPSPSVSQPSTSQSEEKAPELPKPKKNRCFMCRKKVGLTGFDCRCGNLFCGLHRYSDKHNCPYDYKAEAAAKIRKENPVVVAEKIQRI [C33A], the “effect of a mutation on the interaction” value is given as “disrupting interaction”.
With MAQETNQTPGPMLCSTGCGFYGNPRTNGMASVCYKEHLQRQQNSGRMSPMGTASGSNSPTSDSASVQRADTSLNNCEGAAGSTSEKSRNVPVAALPVTQQMTEMSISREDKITTPKTEVSEPVVTQPSPSVSQPSTSQSEEKAPELPKPKKNRCFMCRKKVGLTGFDCRCGNLFCGLHRYSDKHNCPYDYKAEAAAKIRKENPVVVAEKIQRI [C30A], the “effect of a mutation on the interaction” value is “disrupting interaction”.

Variants of B1 are the subject of another assay. Particulars: with psmd6_human PSMD6, Q15008.
Chain of psmd6_human PSMD6, Q15008 (Q15008 whole entry): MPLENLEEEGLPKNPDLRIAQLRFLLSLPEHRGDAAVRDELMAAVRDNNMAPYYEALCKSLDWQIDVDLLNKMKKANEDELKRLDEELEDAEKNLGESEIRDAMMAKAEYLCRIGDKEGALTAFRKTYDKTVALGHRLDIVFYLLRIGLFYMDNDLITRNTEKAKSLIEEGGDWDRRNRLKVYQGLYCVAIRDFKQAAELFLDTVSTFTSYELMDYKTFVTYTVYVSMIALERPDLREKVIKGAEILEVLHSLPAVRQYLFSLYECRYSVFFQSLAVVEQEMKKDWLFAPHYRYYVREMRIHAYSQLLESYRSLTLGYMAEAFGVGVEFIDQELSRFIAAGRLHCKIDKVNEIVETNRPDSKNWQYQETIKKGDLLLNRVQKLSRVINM
For MAQETNQTPGPMLCSTGCGFYGNPRTNGMCSVAYKEHLQRQQNSGRMSPMGTASGSNSPTSDSASVQRADTSLNNCEGAAGSTSEKSRNVPVAALPVTQQMTEMSISREDKITTPKTEVSEPVVTQPSPSVSQPSTSQSEEKAPELPKPKKNRCFMCRKKVGLTGFDCRCGNLFCGLHRYSDKHNCPYDYKAEAAAKIRKENPVVVAEKIQRI [C33A], the “effect of a mutation on the interaction” value is given as “disrupting interaction”.
With MAQETNQTPGPMLCSTGCGFYGNPRTNGMCSVCYKEHLQRQQNSGRMSPMGTASGSNSPTSDSASVQRADTSLNNCEGAAGSTSEKSRNVPVAALPVTQQMTEMSISREDKITTPKTEVSEPVVTQPSPSVSQPSTSQSEEKAPELPKPKKNRCFMCRKKVGLTGFDCRAGNLFCGLHRYSDKHNCPYDYKAEAAAKIRKENPVVVAEKIQRI [C170A], the “effect of a mutation on the interaction” value is on record as “disrupting interaction”.
Regarding MAQETNQTPGPMLCSTGCGFYGNPRTNGMCSVCYKEHLQRQQNSGRMSPMGTASGSNSPTSDSASVQRADTSLNNCEGAAGSTSEKSRNVPVAALPVTQQMTEMSISREDKITTPKTEVSEPVVTQPSPSVSQPSTSQSEEKAPELPKPKKNRCFMCRKKVGLTGFDCRCGNLFAGLHRYSDKHNCPYDYKAEAAAKIRKENPVVVAEKIQRI [C175A], the “effect of a mutation on the interaction” value is “disrupting interaction”.
The same measure, in the same setting: the result for MAQETNQTPGPMLCSTGCGFYGNPRTNGMASVCYKEHLQRQQNSGRMSPMGTASGSNSPTSDSASVQRADTSLNNCEGAAGSTSEKSRNVPVAALPVTQQMTEMSISREDKITTPKTEVSEPVVTQPSPSVSQPSTSQSEEKAPELPKPKKNRCFMCRKKVGLTGFDCRCGNLFCGLHRYSDKHNCPYDYKAEAAAKIRKENPVVVAEKIQRI [C30A] reads “disrupting interaction”.

For the origin of these results see IntAct's records for PubMed 16424905.
